The source of these data is PMC5193401, “Redox Balance in Lactobacillus reuteri DSM20016: Roles of Iron-Dependent Alcohol Dehydrogenases in Glucose/ Glycerol Metabolism” (PLoS ONE, 2016).

Holding throughout (assay): purified protein
Holding throughout (type): biochemical, Limosilactobacillus reuteri

Substrate in data set [1]: NC(=O)c1ccc[n+]([C@@H]2O[C@H](COP(=O)(O)OP(=O)(O)OC[C@H]3O[C@@H](n4cnc5c(N)ncnc54)[C@H](O)[C@@H]3O)[C@@H](O)[C@H]2O)c1
Conditions: 1,3-PDO oxidation (standard 500 mM 1,3-PDO), 50 mM Tris-HCl pH 9.0, 30°C, pH 9.0, varied: cofactor.

Substrate in data set [2]: NC(=O)C1=CN([C@@H]2O[C@H](COP(=O)(O)OP(=O)(O)OC[C@H]3O[C@@H](n4cnc5c(N)ncnc54)[C@H](O)[C@@H]3O)[C@@H](O)[C@H]2O)C=CC1
Conditions: 3-HPA reduction (standard 100 mM 3-HPA), 50 mM potassium phosphate pH 7.0, 30°C, pH 7.0, varied: cofactor.

Substrate in data set [3]: O=CCCO
Conditions: 3-HPA reduction (standard 0.2 mM NADH), 50 mM potassium phosphate pH 7.0, 30°C, 3-HPA produced from glycerol by resting cells (equilibrates with hydrate and dimer), pH 7.0.

B1: ADH7-His6 (Limosilactobacillus reuteri subsp. reuteri) (protein)
chain: MNRQFDFLMPSVNFFGPGVIAKIGDRAKMLNMHKPLIVTTEGLSKIDNGPVKQTVASLEKAGVDYAVFTGAEPNPKIRNVQAGKKMYQDENCDSIITVGGGSAHDCGKGIGIVLTNGDDISKLAGIETLKNPLPPLMAVNTTAGTGSELTRHAVITNEKTHLKFVVVSWRNIPLVSFNDPMLMLDIPKDITAATGCDAFVQAIEPYVSVDHNPITDSQCKEAIQLIQTALPEVVANGHNIEARTKMVEAEMLAGMAFNNANLGYVHAMAHQLGGQYDAPHGVCCALLLTTVEEYNLIACPERFAELAKVMGFDTTGLTLYEAAQKSIDGMREMCRLVGIPSSIKEIGAKPEDFEMMAKNALKDGNAFSNPRKGTVEDIVKLYQKAYDGIY
notes: full length 390 residues (42181 Da), His6 tag from pET21a kept, E. coli BL21(DE3), Ni-NTA purified
Take B1: in the data set “purified protein [1]”, the Km is 1200 ± 100 µM, the Vmax amounted to 4.1 µmol/min/mg, the kcat was found to be 3.2 ± 0.9 s⁻¹ and the kcat/Km was 2670 M⁻¹ s⁻¹. In the data set “purified protein [2]” (error exceeds value), the Km was determined as 40 ± 120 µM, the maximum rate (Vmax) came to 33 µmol/min/mg, the kcat amounted to 11.3 ± 1.9 s⁻¹ and the kcat/Km was determined as 282000 M⁻¹ s⁻¹. Besides, in the data set “purified protein [3]”, the Km is 9900 ± 1100 µM, the Vmax was found to be 29.3 µmol/min/mg, the kcat was 13.2 ± 3 s⁻¹ and the kcat/Km was 1330 M⁻¹ s⁻¹.

B2: PduQ-His6 (Limosilactobacillus reuteri subsp. reuteri) (protein)
chain: MEKYSMPTRIYSGTDSLKELETLNNERILLVCDSFLPGSDTLKEIESHIKDNNKCEIFSDVVPDPPLDKIMEGVQQFLKLKPTIVIGIGGGSALDTGKGIRFFGEKLGKCKINEYIAIPTTSGTGSEVTNTAVISDTKEHRKIPILEDYLTPDCALLDPKLVMTAPKSVTAYSGMDVLTHALESLVAKDANLFTVALSEEAIDAVIKHLVECYRHGDNVDARKIVHEASNIAGTAFNIAGLGICHSIAHQLGANFHVPHGLANTMLLPYVIAYNAEHSEEALHKFAIAAKKAGIAAPGVGDRLAVKRLIAKIREMARQMNCPMTLQAFGVDPAKAEELADTVVANAKKDATFPGNPVVPSDNDLKMVYEAIIR
notes: full length 373 residues (40361 Da), His6 tag from pET21a kept, E. coli BL21(DE3), Ni-NTA purified
Turning to B2, in “purified protein [1]”, the Km came to 800 ± 100 µM, the Vmax stood at 3.9 µmol/min/mg, the kcat is 2.6 ± 0.1 s⁻¹ and the kcat/Km worked out at 3490 M⁻¹ s⁻¹. Besides, in the data set “purified protein [2]”, the Km was determined as 40 ± 10 µM, the Vmax is 12.6 µmol/min/mg, the kcat was determined as 8.5 ± 0.5 s⁻¹ and the kcat/Km turned out to be 237000 M⁻¹ s⁻¹. Besides, in “purified protein [3]”, the Km came to 14500 ± 1700 µM, the Vmax amounted to 14.8 µmol/min/mg, the kcat worked out at 9.9 ± 0.6 s⁻¹ and the catalytic efficiency (kcat/Km) amounted to 640 M⁻¹ s⁻¹.

The Km is the concentration of substrate that gives half-maximal velocity. The Vmax is the top rate of the reaction or transport when substrate is in excess. For orientation: kcat means the number of substrate molecules converted per active site and unit of time at saturation. The term kcat/Km denotes the turnover number divided by the Michaelis constant.
